Experimental data reported in patent US20090269320.
Where a chain is given by its changes, count along the chain named.

Legend:
[1] = system: T1, PEDF purified from human plasma
T1 sequence: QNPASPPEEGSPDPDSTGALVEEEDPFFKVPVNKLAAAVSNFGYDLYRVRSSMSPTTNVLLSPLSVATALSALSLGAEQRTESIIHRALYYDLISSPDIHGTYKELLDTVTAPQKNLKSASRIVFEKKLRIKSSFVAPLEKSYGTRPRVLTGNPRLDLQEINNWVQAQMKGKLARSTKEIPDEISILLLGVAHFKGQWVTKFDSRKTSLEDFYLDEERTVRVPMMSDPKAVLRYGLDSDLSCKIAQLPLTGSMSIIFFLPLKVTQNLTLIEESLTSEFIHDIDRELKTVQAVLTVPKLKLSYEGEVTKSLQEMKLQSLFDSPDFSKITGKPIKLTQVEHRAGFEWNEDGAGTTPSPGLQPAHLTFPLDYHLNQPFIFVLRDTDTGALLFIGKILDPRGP

rPEDF variant S227A = system: T2, rPEDF variant S227A
T2 sequence: T1 sequence with S208A

rPEDF variant S227E = system: T3, rPEDF variant S227E
T3 sequence: T1 sequence with S208E

[2] = system: T4, recombinant PEDF (recombinant wild-type human pigment epithelium derived factor)
T4 sequence: T1 sequence

[3] = system: T5, rPEDF double variant S24,114A
T5 sequence: T1 sequence with S5A, S95A

[4] = system: T6, rPEDF double variant S24,114E
T6 sequence: T1 sequence with S5E, S95E

rPEDF variant S114A = system: T7, rPEDF variant S114A
T7 sequence: T1 sequence with S95A

rPEDF variant S114E = system: T8, rPEDF variant S114E
T8 sequence: T1 sequence with S95E

rPEDF variant S24A = system: T9, rPEDF variant S24A
T9 sequence: T1 sequence with S5A

rPEDF variant S24E = system: T10, rPEDF variant S24E
T10 sequence: T1 sequence with S5E

Row | Substance | in vitro PKA phosphorylation ([γ32P]-ATP, heparin, autoradiography) [1] | in vitro PKA phosphorylation (autoradiography) (rPEDF variant S227A) | in vitro PKA phosphorylation (autoradiography) (rPEDF variant S227E) | in vitro PKA phosphorylation ([γ32P]-ATP, heparin, autoradiography) [2] | in vitro CK2 phosphorylation ([γ32P]-ATP, autoradiography) [1] | in vitro CK2 phosphorylation (autoradiography) [3] | in vitro CK2 phosphorylation (autoradiography) [4] | in vitro CK2 phosphorylation (autoradiography) (rPEDF variant S114A) | in vitro CK2 phosphorylation (autoradiography) (rPEDF variant S114E) | in vitro CK2 phosphorylation (autoradiography) (rPEDF variant S24A) | in vitro CK2 phosphorylation (autoradiography) (rPEDF variant S24E) | in vitro CK2 phosphorylation ([γ32P]-ATP, autoradiography) [2]
1 | catalytic subunit of PKA | Both rPEDF and plPEDF were equally phosphorylated by PKA in the presence of heparin | Mutation of Ser227 to Ala or to Glu completely abolished PKA phosphorylation | Mutation of Ser227 to Ala or to Glu completely abolished PKA phosphorylation | Both rPEDF and plPEDF were equally phosphorylated by PKA in the presence of heparin |  |  |  |  |  |  |  | 
2 | recombinant human CK2 (casein kinase 2) |  |  |  |  | Both rPEDF and plPEDF were phosphorylated by CK2; CK2 phosphorylation of rPEDF was stronger than the phosphorylation of plPEDF | the double variant S24,114A almost completely abolished this phosphorylation | both S114E and S24,114E mutations significantly increased CK2 phosphorylation compared with CK2 phosphorylation of rPEDF | The S114A variant significantly reduced CK2 phosphorylation | both S114E and S24,114E mutations significantly increased CK2 phosphorylation compared with CK2 phosphorylation of rPEDF | Mutation of S24A significantly reduced CK2 phosphorylation | the S24E mutation reduced phosphorylation only to a moderate extent | Both rPEDF and plPEDF were phosphorylated by CK2; CK2 phosphorylation of rPEDF was stronger than the phosphorylation of plPEDF
